Data published in paper PMC8534766.
Starred links: 1 amine or outer side, 2 acyl side, 3 side chain; linkers in the order of their positions; H or OH if unused. Benzoyl(5-NH,2-NO2) = O=C(c1cc(N[*:1])ccc1[N+](=O)[O-])[*:2]

Target: SP-1, serine protease from Clostridium ramosum DSM1402 (Clostridium ramosum DSM1402)

KM of steady-state cleavage of the substrate by SP-1 (20 nM SP-1, 0.05-2 mM substrate, 20 mM Tris, 300 mM NaCl, 1 mM CaCl2, pH 8, room temperature; Michaelis-Menten fit): 0.000191 M
Binder: {ABZ}-IMAR-{Benzoyl(5-NH,2-NO2)-NH2} [ABZ-Ileu-Met-Ala-Arg-ANB-NH2]
